The values that follow come from patent US20060275823A1 (published 2006).

The target of the assay is T1, ICS (pro-IL-1beta-derived epitope).
T1 construct: also called ICS peptide; 14-mer called ICS
T1 peptide: NEAYVHDGPVRSLN
As to the kind of experiment: method not stated; measured in a different context from the cleavage assay, with LEPB lacking a free N-terminus.

B1: LEPB (peptide)
peptide: KARKEAELAAATAEQ
notes: In the ICE cleavage experiment it was a synthetic peptide with a free N-terminus; also called synthetic LEPB; 15mer (LEPB)
As to B1, binding was put at a Kd of 2000 nM.

As usually defined, the Kd is the concentration at which binding is half-saturated.
